Consider 41 sequences from the nanobody polyreactivity screen of Harvey et al. (2022).

This series is described as follows: yeast display, Sf9 membrane polyspecificity reagent, FACS + sequencing; frameworks hold sequencing errors. A digest of the protocol:
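A nanobody's polyreactivity label depends on the gate it was sorted from. Yeast display cells were stained with 10% biotinylated, detergent-solubilized Sf9 membrane reagent for 1 hour at 4 °C, enriched on streptavidin microbeads and sorted by FACS. The low and high (top ~1%) gates were set on anti-HA fluorescence for expression and streptavidin fluorescence for reagent binding.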
For the sequence “QVQLVESGGGFVQAVGSLRLSCAASGSTFPRYVLGWYRQAPGTARELVAAITWRGSTNDADSVKGRFTISRDNAKNTVYLQMNSLKPEDSAVYYCAAAFFARDRKRYNYWGQGTQVTVSS”, the “polyreactivity (PSR sort gate)” value is “high polyreactivity”. The same measure for “QVQLVESGGGIDQAGGSLRLRCAASGSIFAYYAMGWYRQAPGKERELVAAISWNGGRTYYADSVKGRFTISRDNAKNTVYLQMNSLKPEDTAVYYCNAVRWAIYDYWGQGTQVTLSS”: “high polyreactivity”; for “QVQLVESGGGIVHEGGSLRLSCAASGSIFFGYAMGWYRLAPGKELELVAAISASGGLTFYADSLKGRFTISRDNAKNTVYLQMNSLKPEDPAVYYCAKRGRSTYGYDYWGQGTQVTVSS”: “high polyreactivity”; for “QVQLVESGGGIVQAGASLRLSCSASGFTQYPYTMGWNRHAPGKESELVAAITSSGATTYYADSVKGRFTISRDNAKNTVYLQMNRLKTEVTAVYYCAAGRAAAFGYLGQGTQVTVSS”: “high polyreactivity”. As to “QVQLVESGGGIVQAGCSLRLSCAASGSIFSHNAKVGYRQAPGKERELVAAITKGGGRTYYADSVKGRFTISRDNAKNTVYLQMNSLKPEDNAVYYCATAGAHGRERDYWGQGTQVTVSS”, the “polyreactivity (PSR sort gate)” value was “high polyreactivity”. The same measure for “QVQLVESGGGIVQAGGILRLSCAASGRTLHYSAMVWYRQAPRIERELVAAISARGGRTYYADSVKGRYTISLDNAKNTVYLQMTSLKPEDTAVYYCAAAGYITGSDRYDYWGQGTLVTVSS”: “high polyreactivity”. The entry for “QVQLVESGGGIVQAGGRLRLSCAASGRIFYYNAMGWYRQAPGQERELVAVISRNGGRTYYADSVKGRFTISRDNAKNTVSFQMNSLKPEDTAVYYCAARSAGDRYDYWGQGTQVTVSS” is “high polyreactivity”; for “QVQLVESGGGIVQAGGRLRLSCAASGSIFLQYTMGWYRQAPGKERELVAAITESDGSTYYADSVKGRFTISRDNAKNTVYLQMNSLKPEDTAVYYCAADVVYFKYWDKYDYWGQGTQVTLSS” it is “low polyreactivity”; for “QVQLVESGGGIVQAGGRLRLSCAASGYIFDIYAMGWNRQAPGKERELDADITRSGGGTYYADSVKGRFTISRDNAKNTVYLQMNSLKPEDTAVYYCAAESYVYGGSDYDYWGQGTQVTVSS” it is “low polyreactivity”. The entry for “QVQLVESGGGIVQAGGSHRLSCAASGRIFGVNAMGWYRQATGKERELVAAISVSGDSTYYADSVKGRFTISRDNAKNTVYLQMNSLKPEDTAVYYCNAGYTFVPADLTDEYYWGQGTQVTVSS” is “low polyreactivity”; for “QVQLVESGGGIVQAGGSHRLSCAASGRTFYRYAMGWYRQAPGTERELVAAITRRSGNTYYADSVKGRFTISRDNAKNNVYLQMISLKPEDTAVYYCAADPETWSPHYESLGYYWGQGTQVTVSS” it is “high polyreactivity”; for “QVQLVESGGGIVQAGGSLRLICAASGSIFSSYVMGWYRQAPGKERELVAAITSRGGSTYYADSVKGRFTISRDNAKNTVYLQMNSLKPEDTAVYYCAKGGTTWYWSGYRSIYFRYDYWGQGTQVTVSS” it is “high polyreactivity”. Consider “QVQLVESGGGIVQAGGSLRLRCAASGSTFYVYHMGWDRPAPGKERELVAAISSGAGSTYYADSVKGRFTISRDNAKNTVYLQMNSLKRKIPRSITALLFTVNGGGSRSHDYWAQGTQVTVSS”, for which the “polyreactivity (PSR sort gate)” value is “low polyreactivity”. The same measure for “QVQLVESGGGIVQAGGSLRLRWAASGLTSVRNAMGWYRQAPGKERELVAGISWSGGRTYYADSVKGRFTISRDNEKNTVYLQMNSLKPEDTGVYYCNKVRAYYTQEGSWGQGTQVTVSS”: “high polyreactivity”; for “QVQLVESGGGIVQAGGSLRLSCAASGFICGHYTMGWYRQAPGKERELVAAITTGGRTYYADSVKGRFTISRDNGKNTVYLQMISLKPEDTAVYYCAARGYIWGQGTPVTVSS”: “high polyreactivity”; for “QVQLVESGGGIVQAGGSLRLSCAASGFIFDSYAMGWYRQAPGKERELVAAITTSGGRTYYADSVKGRFTISRDNAKNTVYLQMNSLKPEDTAVYYCAAKYTARWGFDYWGQGTQVTVSS”: “high polyreactivity”. The entry for “QVQLVESGGGIVQAGGSLRLSCAASGFIFPDYGMGWYRQAPGKERELVAAISRNGVSTYYADSVKGRFTISRDNAKNTVYLQMNSLKPEDTAVYYCAARYYRIRRVSKSGYYWGQGTQVTVSS” is “low polyreactivity”. Regarding “QVQLVESGGGIVQAGGSLRLSCAASGFIFSYYVMGWYRQAPGKEREFVAAITYSGTYTYYADSVKGRFTISRDNAKNTVYLQMNSLKPEDTAVYYCAAYSPRYNAHDYWGQGTQVTVSS”, the “polyreactivity (PSR sort gate)” value was “high polyreactivity”. The same measure for “QVQLVESGGGIVQAGGSLRLSCAASGFNFSLYAMGWYRQAPGKERELVAVIDRRGGNTYYADSVKGRFTISRDNAKNTVYLQMNSLKPEDTAVYSCAADRRFHYDYWGQGTQVTVSS”: “high polyreactivity”; for “QVQLVESGGGIVQAGGSLRLSCAASGFTFAYYAMGWYRQAPGKERELVAAITRGGGRTFYADSVKGRFTISRDNAKNTVYLQMNSLKPEDTAVYYCAAVKDTTNSRGYGYWGQGTHVTVSS”: “high polyreactivity”; for “QVQLVESGGGIVQAGGSLRLSCAASGFTFGYYARGWYRQAPGKERELVAAISSRVGRTYYADSVKGRFTISRDNAKNTDYLQMNSLKPEDTAVYYCNTVGKTQWYYYWGQGTQVTVAS”: “high polyreactivity”. The entry for “QVQLVESGGGIVQAGGSLRLSCAASGFTFSNNVMGGYRQAPGKERELVAAITWSGDGTYYADSVKGRFTISRDNAKNTVYLQMNSLKPEDTAVYYCNARYGKEYDYWGQGTQVTVSS” is “low polyreactivity”.

Turning to “QVQLVESGGGIVQAGGSLRLSCAASGFTFSRYTMGWFRPAPGQERELVAAINRRGGSTYYADSVKGRFTISRDNAKHTVYLQLNSVKPADTAVYYCAATYTVRSGNGIANDYWGQGTQVTVSS”, the “polyreactivity (PSR sort gate)” value is “high polyreactivity”. With “QVQLVESGGGIVQAGGSLRLSCAASGFTFTYNTKGWYRQEPGKERELVAAISRSGGSTYYADSVKGRFTISRDNAKNTVYLQLNSLKPEDSAVYYCAKQRRDDNGGYWGLGTQVTVSS”, the “polyreactivity (PSR sort gate)” value is on record as “high polyreactivity”. The entry for “QVQLVESGGGIVQAGGSLRLSCAASGFTFWSYAMGWYRPAPGKERELVAAISRGGSTSYADSVKGRFTISRDNAKNTVYLQLNSLKPEDTAVYYCAVVRARAYVYHGFYWGQGTQVTVSS” is “high polyreactivity”. The entry for “QVQLVESGGGIVQAGGSLRLSCAASGFTLYYYAMGWYRQAPGKERELVAAITSSGTSTYYADSVKGRFTISRDNAKNTVYVQMNSLKPEDTAVYYCAAVSKIYHYRAVRLDDYWGQGTQVTVSS” is “low polyreactivity”; for “QVQLVESGGGIVQAGGSLRLSCAASGFTYDENAMGWYRQAPGINYSGASTYYAESVKGRFTISRDNAKNTVYLQMNSLKPEDTAVYYCAAEVVAQMNYWGQGTQVTVSS” it is “low polyreactivity”; for “QVQLVESGGGIVQAGGSLRLSCAASGFTYWFYAMGWYRQAPGKERELVAAISRGGSTYYADSVKGRFTFSRDKAKNTVYLQMNSLKPEDTAVYYCAADFVHRGYYYWGQGTQVTVSS” it is “high polyreactivity”. Turning to “QVQLVESGGGIVQAGGSLRLSCAASGGIFFIYTMGWYRQAPGKERELVAAITSTGDTNYADSVKGRFTISRDNAKNTVYLQMNSLKPEDTAVYYCNKDYGTRGKGYDYWGQGTQVTVSS”, the “polyreactivity (PSR sort gate)” value is “low polyreactivity”. The same measure for “QVQLVESGGGIVQAGGSLRLSCAASGGTFNRYAMGWYRQAPGKERELVAAISNGGGRTYYADSVKGRFTISRDNAKNTVYLQMNSLKPEDNSVYYCAKDLTRTSYRSAFDYWGQGTQVTVSS”: “high polyreactivity”; for “QVQLVESGGGIVQAGGSLRLSCAASGGTFSRNAMGWYRQAPGKERELVAAINSSGVSTSYADSVKGRFTISRDNEKNTVYLQMNSLKPEDTAVYYCAAETSSAEVDYWGQGTQVTVSS”: “low polyreactivity”.

Turning to “QVQLVESGGGIVQAGGSLRLSCAASGIIFPVYAMGWYRQAPGKERELVAAISRSGGSTYYADSVKGRFTISRDNAKNNVYLQMNSLKPEDTAVYYCAARYVVGYSLSSYGYWGQGTQVTVSS”, the “polyreactivity (PSR sort gate)” value is “high polyreactivity”. For “QVQLVESGGGIVQAGGSLRLSCAASGIIFTGNAMGWYIQAPGKERELVAAITSGDTTNYADSVKGRFTISRDNAKNTVYLQMNSLKPEDTAVYYCAKELQVRQAGDYWGQGTQVTVSS”, the “polyreactivity (PSR sort gate)” value was “low polyreactivity”. Turning to “QVQLVESGGGIVQAGGSLRLSCAASGIIIDGNAMGWYRQAPGKERELVAAISSRGGSTYYADSVKGRFTISRDYAKNTVYLQMNSLKPEDTAVYYCAAKVRHYYSASNYYYWGQGTQVTVSS”, the “polyreactivity (PSR sort gate)” value is “high polyreactivity”. The same measure for “QVQLVESGGGIVQAGGSLRLSCAASGIISRVYAMGWYRQAPGKERELVAAISGSGGTTYYADSVKGRFTISRDNAKNTVYLQMNRLKPEDTAVDYCAARYKALYDYWGQGTQVTVSS”: “high polyreactivity”. The entry for “QVQLVESGGGIVQAGGSLRLSCAASGLIFLDNAMGWYRQAPGKEREFVAAIDSGGSTNYADSVKGRFTISRDNAKNNVYLQMNSLKPEDTAVYYCAAVWIYAPWYYQESVEYYYWGQGTQVSVSS” is “low polyreactivity”; for “QVQLVESGGGIVQAGGSLRLSCAASGLIFPWTYAMGWYRQAHGKEREFVAAITSSDGSTYYADSVKGRFTISRDNAKNTVYLQMNSLKPEDTAVYYCAAVGWDYDWDYYYWGQGTQVTVSS” it is “high polyreactivity”. Take “QVQLVESGGGIVQAGGSLRLSCAASGLTFYGYTMGWYRQAPGKERELVAAISWSGGNTYYADSVKGRFTISRDNAKNTVYLQMNSLKPDDTAVYYCAAVYVYLGVYARYPIWGYYYWGQGTQVTVSS”: the “polyreactivity (PSR sort gate)” value is listed as “low polyreactivity”.

Regarding “QVQLVESGGGIVQAGGSLRLSCAASGLTIPPNAMGWYRQAPGKEREFVAAITWSGGSTYYADSVKGRFTISRDNAKNTVYLQMNRLKPEDSAVYYCNRVTAYYPTKFDYWGQGTQVTVSS”, the “polyreactivity (PSR sort gate)” value was “high polyreactivity”.

For the sequence “QVQLVESGGGIVQAGGSLRLSCAASGNIFDDNAMGWYRQAPGKDRELVAAITSRGTRTYYADSVKGRFTISRDNAKNTVYLQMNSLKPEDTAVYYCAAGSYYWGQGSQVTVSS”, the “polyreactivity (PSR sort gate)” value is “high polyreactivity”. The entry for “QVQLVESGGGIVQAGGSLRLSCAASGNIFHKNAMGWYRQAPGKERELVASISCSGGSTYYADSVKGRFTISRDNAKNTVYLQMNSLKPEDTAVYYCATDAFGYPVNRYALNDYWGQGTQVTVSS” is “low polyreactivity”.
